The values below come from PMC10369405 (JACS Au, 2023).

For this experiment, the target named is T1, full-length human Gasdermin D (human, UniProt P57764 1-484).
T1 construct: Gasdermin D, human, UniProt P57764, 484 residues (53 kDa); His6-SUMO tag removed with Ulp1 protease and anion exchange; also called hGSDMD; GSDMD; source: E. coli BL21 (DE3) Gold, purified (HisTrap, Ulp1 cleavage, anion exchange, Superdex 75)
T1 sequence (looked up): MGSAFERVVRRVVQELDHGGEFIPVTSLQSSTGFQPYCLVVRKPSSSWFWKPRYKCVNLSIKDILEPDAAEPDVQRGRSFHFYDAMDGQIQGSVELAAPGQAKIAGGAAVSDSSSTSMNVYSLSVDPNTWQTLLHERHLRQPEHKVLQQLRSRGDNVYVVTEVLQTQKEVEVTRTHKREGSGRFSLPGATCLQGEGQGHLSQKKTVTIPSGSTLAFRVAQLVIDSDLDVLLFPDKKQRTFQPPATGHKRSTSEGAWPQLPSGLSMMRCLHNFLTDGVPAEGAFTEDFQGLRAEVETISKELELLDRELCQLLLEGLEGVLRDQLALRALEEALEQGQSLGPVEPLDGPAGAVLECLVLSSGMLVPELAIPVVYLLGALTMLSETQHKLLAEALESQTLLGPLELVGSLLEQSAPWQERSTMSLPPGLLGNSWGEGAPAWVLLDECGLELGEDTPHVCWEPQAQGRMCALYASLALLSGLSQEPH
Put plainly: native gel or EMSA; native-PAGE, 12% polyacrylamide, 150 V, 25 mM Tris-HCl, 192 mM glycine, pH 8.3; Caspase-1 alone (40 uM), GSDMD alone (40 uM), GSDMD/Caspase-1 at 1:1 and 2:1 equivalents, with and without 20 mM NaTDB. Particulars: both partners purified. Background: Mobility shift assays separate free from complexed probe on a gel.

B1: human Caspase-1 (C285A) p20/p10 dimer (complex)
chain 1: NPAMPTSSGSEGNVKLCSLEEAQRIWKQKSAEIYPIMDKSSRTRLALIICNEEFDSIPRRTGAEVDITGMTMLLQNLGYSVDVKKNLTASDMTTELEAFAHRPEHKTSDSTFLVFMSHGIREGICGKKHSEQVPDILQLNAIFNMLNTKNCPSLKDKPKVIIIQAARGDSPGVVWFKD
chain 2: AIKKAHIEKDFIAFCSSTPDNVSWRHPTMGSVFIGRLIEHMQEYACSCDVEEIFRKVRFSFEQPDGRAQMPTTERVTLTRCFYLFPGH
notes: peptides 279-286 and 287-297 are assigned to it; Caspase-1 p10 subunit (p10 fragment), human; peptides 342-352, 375-383 and 384-391 are assigned to it; Polycistronic vector encoding an N-terminal His-tag; also called hCaspase-1 (C285A); protease C285A
On to B1, for which the binding result is on record as “binds”.
